In this assay the target is hEAAT3-X (Hg2+-crosslinked Cys-mini K269C/W441C hEAAT3g, human excitatory amino acid transporter 3) (human) (UniProt P43005). Nature of the assay: cryo-EM structure; hEAAT3-X at ~5 mg/mL in 20 mM HEPES-Tris pH 7.4, 200 mM NaCl, 0.01% GDN with 10 mM L-Asp, D-Asp, R-2HG or L-Cys; maps refined with C3 symmetry.

As usually defined, the stoichiometry N is a count of units in the complex or per binding partner. In turn, “hEAAT3-X (Hg2+-crosslinked Cys-mini K269C/W441C hEAAT3g, human excitatory amino acid transporter 3) (from UniProt P43005 1-524)” gave a stoichiometry N of 3.

(Values after paper PMC12036983.)
